Where two headings read alike, the source gives them in different places.
What was measured:
[1] = biological target: T1, human CD96v1 on transiently transfected HEK cells (human, UniProt P40200 22-585); assay: flow cytometry on transiently transfected HEK cells (Human CD96v1)
T1 construct: whole, on cells
T1 sequence (looked up): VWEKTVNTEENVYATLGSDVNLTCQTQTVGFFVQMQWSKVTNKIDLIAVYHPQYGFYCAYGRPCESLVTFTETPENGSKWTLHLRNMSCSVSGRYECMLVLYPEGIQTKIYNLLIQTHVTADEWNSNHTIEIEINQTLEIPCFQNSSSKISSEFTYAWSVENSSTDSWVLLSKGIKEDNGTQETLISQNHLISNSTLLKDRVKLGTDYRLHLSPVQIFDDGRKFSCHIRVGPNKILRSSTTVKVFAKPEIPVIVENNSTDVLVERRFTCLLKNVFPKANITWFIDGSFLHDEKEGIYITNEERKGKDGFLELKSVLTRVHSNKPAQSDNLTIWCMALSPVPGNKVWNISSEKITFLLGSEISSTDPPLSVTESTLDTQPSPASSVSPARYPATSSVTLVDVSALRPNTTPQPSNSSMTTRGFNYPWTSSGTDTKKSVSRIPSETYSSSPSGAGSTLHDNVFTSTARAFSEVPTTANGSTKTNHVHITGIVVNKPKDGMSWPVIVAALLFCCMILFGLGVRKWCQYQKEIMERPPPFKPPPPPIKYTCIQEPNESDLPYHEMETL

[2] = biological target: T2, cynomolgus monkey CD96v2 expressed on cells (CHO cells; transiently transfected HEK cells) (cynomolgus monkey, UniProt A0A2K5TWV6 22-569); assay: flow cytometry on CHO cells expressing cynomolgus CD96v2
T2 construct: the cell is named under assay; also called CHO-cyCD96; Cyno CD96v2
T2 sequence: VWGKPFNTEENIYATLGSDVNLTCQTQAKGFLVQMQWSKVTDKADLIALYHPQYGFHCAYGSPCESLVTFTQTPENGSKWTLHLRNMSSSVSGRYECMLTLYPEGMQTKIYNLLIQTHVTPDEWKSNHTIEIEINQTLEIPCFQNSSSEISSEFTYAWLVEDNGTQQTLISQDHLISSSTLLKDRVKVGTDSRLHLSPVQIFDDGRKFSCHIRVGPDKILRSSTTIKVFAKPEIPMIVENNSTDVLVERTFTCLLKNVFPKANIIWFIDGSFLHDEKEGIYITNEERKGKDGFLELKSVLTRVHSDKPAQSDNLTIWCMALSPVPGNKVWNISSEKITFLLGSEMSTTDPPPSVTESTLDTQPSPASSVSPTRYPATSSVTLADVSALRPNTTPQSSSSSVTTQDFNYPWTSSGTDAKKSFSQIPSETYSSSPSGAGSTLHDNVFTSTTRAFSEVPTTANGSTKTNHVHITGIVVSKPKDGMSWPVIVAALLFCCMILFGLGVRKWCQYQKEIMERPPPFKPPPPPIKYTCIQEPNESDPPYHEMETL

[3] = biological target: T3, human CD96v2 expressed on cells (CHO cells; transiently transfected HEK cells) (human, UniProt P40200-2 22-569); assay: flow cytometry, inhibition of human CD155-Fc-AF647 binding to CHO cells expressing human CD96v2; competitor CD155-Fc
T3 construct: whole, on cells; the cell is named under assay; also called CHO-huCD96; hCD96v2
T3 sequence (looked up): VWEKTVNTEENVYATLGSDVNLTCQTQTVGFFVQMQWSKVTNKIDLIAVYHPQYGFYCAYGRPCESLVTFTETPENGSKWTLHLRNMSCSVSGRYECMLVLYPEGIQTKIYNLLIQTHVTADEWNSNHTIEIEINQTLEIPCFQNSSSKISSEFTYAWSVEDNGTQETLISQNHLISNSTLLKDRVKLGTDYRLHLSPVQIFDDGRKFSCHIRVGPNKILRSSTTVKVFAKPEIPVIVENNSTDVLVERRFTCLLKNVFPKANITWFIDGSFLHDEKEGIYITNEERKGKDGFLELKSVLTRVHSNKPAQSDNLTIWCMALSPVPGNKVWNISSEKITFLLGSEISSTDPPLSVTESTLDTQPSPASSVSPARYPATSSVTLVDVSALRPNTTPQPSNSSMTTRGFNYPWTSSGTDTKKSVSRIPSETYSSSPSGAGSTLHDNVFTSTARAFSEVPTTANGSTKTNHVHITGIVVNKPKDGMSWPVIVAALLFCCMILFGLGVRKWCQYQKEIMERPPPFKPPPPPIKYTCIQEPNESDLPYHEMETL

[4] = biological target: T1, human CD96v1 on transiently transfected …; assay: flow cytometry on transiently transfected HEK cells; upper end of range, n = 3
[5] = biological target: T2, cynomolgus monkey CD96v2 expressed on …; assay: as above
[6] = biological target: T4, blood derived cynomolgus monkey CD96v2 on transiently transfected HEK cells (cynomolgus monkey); assay: as above
T4 construct: also called Blood derived Cyno CD96v2

[7] = biological target: T3, human CD96v2 expressed on cells (CHO …); assay: as above
[8] = biological target: T5, cynomolgus monkey CD96v1 on transiently transfected HEK cells (cynomolgus monkey); assay: as above
T5 construct: whole, on cells; also called Cyno CD96v1

[9] = biological target: T2, cynomolgus monkey CD96v2 expressed on …; assay: flow cytometry on transiently transfected HEK cells (Cyno CD96v2)
[10] = biological target: T1, human CD96v1 on transiently transfected …; assay: flow cytometry on transiently transfected HEK cells (Human CD96v1); remark: listed apart in the source

EC50 (read off the curve) [1]: ~6 nM
EC50 [2]: 0.02 nM
IC50 [3]: 1.55 nM
EC50 [4]: 8.89 nM
EC50 [5]: 11.2 nM
EC50 [6]: 10.2 nM
EC50 [7]: 8.78 nM
EC50 [8]: 12.3 nM
EC50 (read off the curve) [9]: ~6 nM
EC50 (read off the curve) [10]: ~7 nM
B1: 42Y073-86F08-66 (antibody)
heavy: not shown
light: DIQLTQSPSSLSASVGDRVTITCRASQSISSYLNWYQQKPGKAPKLLIYAASSLQSGVPSRFSGSGSGTDFTLTISSLQPEDFATYYCQQVLHTITFGGGTKVEIKRTVAAPSVFIFPPSDEQLKSGTASVVCLLNNFYPREAKVQWKVDNALQSGNSQESVTEQDSKDSTYSLSSTLTLSKADYEKHKVYACEVTHQGLSSPVTKSFNRGEC
notes: also called GSK 6097608; GSK6097608

Reference: patent publication US12528864 (GlaxoSmithKline, dated 2026)
